Earlier results as cited in PMC10813008.

How the values were obtained:
His54 = His54 (UniProt position 54, KGSCFHRIIPG); experiment: NMR; conditions: not stated (ref 75 studied forms with and without immunosuppressant ligands; the review does not say which form the limit refers to)
His25 = His25 (UniProt position 26, QTCVVHYTGML); experiment: NMR; conditions: not stated (ref 75 studied forms with and without immunosuppressant ligands; the review does not say which form the limit refers to)
His61 = His61 (UniProt position 92, RYQMDHGARIF); experiment: NMR
His81 = His81 (UniProt position 112, NTIVLHHGPLY); experiment: NMR
His119 = His119 (UniProt position 145, PYVPVHFDASV); experiment: mass spectrometry
His12 = His12 (UniProt position 38, KFERQHMDSST); experiment: mass spectrometry
[1] = complex with 3'-cytidine monophosphate (3'-CMP)

Cyclophilin (cyclophilin A) (not stated (probably Homo sapiens))
pKa (His54): < 4.2

FK506 binding protein (FKBP) (not stated (probably Homo sapiens))
pKa (His25): < 3.6

Phosphatidylinositol-specific phospholipase C (PI-PLC) (Bacillus cereus)
pKa (His61): < 3
pKa (His81): < 3

Ribonuclease A (RNase A, pancreatic ribonuclease) (Bos taurus)
pKa (His119; [1]): 7.0
pKa (His119; free enzyme): 6.3
pKa (His12; [1]): 7.1
pKa (His12; free enzyme): 5.8
